According to article PMC4377555, “A novel PKD2L1 C-terminal domain critical for trimerization and channel function” (Scientific Reports, 2015):
Where “and” joins values, the source holds several entries; their conditions need not be identical. Equal values may be shown once.

What was measured:
[1] = biological target: the molecule itself; experiment: dynamic light scattering; Malvern Zetasizer Nano ZS, 25°C; 50 mM NaH2PO4, 300 mM NaCl, 250 mM imidazole, pH 8.0; 0.4 mg/ml; oligomeric state from the apparent hydrodynamic diameter
[2] = biological target: the molecule itself; experiment: native gel or EMSA; BN-PAGE of purified GFP fusion proteins, Coomassie blue staining
[3] = biological target: the molecule itself; experiment: non-reducing SDS-PAGE with Western blot; lysates of transfected HEK or HeLa cells, SDS loading buffer without reducing reagents, on ice 5 min, 8% gel; some samples also under reducing condition or with 10 mM NEM in the lysis buffer
[4] = biological target: the molecule itself; experiment: native gel or EMSA; BN-PAGE with Western blot of HeLa cell lysates (NativePAGE Sample Prep Kit, Coomassie G-250, 3-12% BisTris gels), non-denaturing

B1: purified PKD2L1 C-terminus (CT, E566-S805) (domain or fragment, human, UniProt Q9P0L9-1 566-805, looked up)
chain: EVKEELAGQKDELQLSDLLKQGYNKTLLRLRLRKERVSDVQKVLQGGEQEIQFEDFTNTLRELGHAEHEITELTATFTKFDRDGNRILDEKEQEKMRQDLEEERVALNTEIEKLGRSIVSSPQGKSGPEAARAGGWVSGEEFYMLTRRVLQLETVLEGVVSQIDAVGSKLKMLERKGWLAPSPGVKEQAIWKHPQPAPAVTPDPWGVQGGQESEVPYKREEEALEERRLSRGEIPTLQRS
notes: PKD2L1, human, C-terminus E566-S805; the methods describe only GFP-C1 in pET28a(+) and Ni-NTA; the DLS buffer holds 250 mM imidazole; source: E. coli, purified
- stoichiometry N [1]: 3

B2: GFP-C1 (GFP fused to PKD2L1 C1, K575-T622) (domain or fragment, human, UniProt Q9P0L9-1 575-622, looked up)
chain: KDELQLSDLLKQGYNKTLLRLRLRKERVSDVQKVLQGGEQEIQFEDFT
notes: PKD2L1, human, domain C1 K575-T622 (48 amino acids), in pET28a(+) with an upstream GFP gene; source: E. coli BL21 (DE3), purified (Ni-NTA); not shown: GFP, N-terminal, kept
- stoichiometry N [2]: 3

B3: human PKD2L1 over-expressed from pcDNA3.1(+) (natural protein, UniProt Q9P0L9-1 1-805, looked up)
chain: MNAVGSPEGQELQKLGSGAWDNPAYSGPPSPHGTLRVCTISSTGPLQPQPKKPEDEPQETAYRTQVSSCCLHICQGIRGLWGTTLTENTAENRELYIKTTLRELLVYIVFLVDICLLTYGMTSSSAYYYTKVMSELFLHTPSDTGVSFQAISSMADFWDFAQGPLLDSLYWTKWYNNQSLGHGSHSFIYYENMLLGVPRLRQLKVRNDSCVVHEDFREDILSCYDVYSPDKEEQLPFGPFNGTAWTYHSQDELGGFSHWGRLTSYSGGGYYLDLPGSRQGSAEALRALQEGLWLDRGTRVVFIDFSVYNANINLFCVLRLVVEFPATGGAIPSWQIRTVKLIRYVSNWDFFIVGCEVIFCVFIFYYVVEEILELHIHRLRYLSSIWNILDLVVILLSIVAVGFHIFRTLEVNRLMGKLLQQPNTYADFEFLAFWQTQYNNMNAVNLFFAWIKIFKYISFNKTMTQLSSTLARCAKDILGFAVMFFIVFFAYAQLGYLLFGTQVENFSTFIKCIFTQFRIILGDFDYNAIDNANRILGPAYFVTYVFFVFFVLLNMFLAIINDTYSEVKEELAGQKDELQLSDLLKQGYNKTLLRLRLRKERVSDVQKVLQGGEQEIQFEDFTNTLRELGHAEHEITELTATFTKFDRDGNRILDEKEQEKMRQDLEEERVALNTEIEKLGRSIVSSPQGKSGPEAARAGGWVSGEEFYMLTRRVLQLETVLEGVVSQIDAVGSKLKMLERKGWLAPSPGVKEQAIWKHPQPAPAVTPDPWGVQGGQESEVPYKREEEALEERRLSRGEIPTLQRS
notes: PKD2L1, human, full-length cDNA in pcDNA3.1(+), no tag named for this experiment; also called TRPP3; source: HEK293T and HeLa cells, transfected, in lysate
- stoichiometry N [3]: 2 and 3 and 4

B4: Flag-tagged human PKD2L1 WT (natural protein, UniProt Q9P0L9-1 1-805, looked up)
chain: MNAVGSPEGQELQKLGSGAWDNPAYSGPPSPHGTLRVCTISSTGPLQPQPKKPEDEPQETAYRTQVSSCCLHICQGIRGLWGTTLTENTAENRELYIKTTLRELLVYIVFLVDICLLTYGMTSSSAYYYTKVMSELFLHTPSDTGVSFQAISSMADFWDFAQGPLLDSLYWTKWYNNQSLGHGSHSFIYYENMLLGVPRLRQLKVRNDSCVVHEDFREDILSCYDVYSPDKEEQLPFGPFNGTAWTYHSQDELGGFSHWGRLTSYSGGGYYLDLPGSRQGSAEALRALQEGLWLDRGTRVVFIDFSVYNANINLFCVLRLVVEFPATGGAIPSWQIRTVKLIRYVSNWDFFIVGCEVIFCVFIFYYVVEEILELHIHRLRYLSSIWNILDLVVILLSIVAVGFHIFRTLEVNRLMGKLLQQPNTYADFEFLAFWQTQYNNMNAVNLFFAWIKIFKYISFNKTMTQLSSTLARCAKDILGFAVMFFIVFFAYAQLGYLLFGTQVENFSTFIKCIFTQFRIILGDFDYNAIDNANRILGPAYFVTYVFFVFFVLLNMFLAIINDTYSEVKEELAGQKDELQLSDLLKQGYNKTLLRLRLRKERVSDVQKVLQGGEQEIQFEDFTNTLRELGHAEHEITELTATFTKFDRDGNRILDEKEQEKMRQDLEEERVALNTEIEKLGRSIVSSPQGKSGPEAARAGGWVSGEEFYMLTRRVLQLETVLEGVVSQIDAVGSKLKMLERKGWLAPSPGVKEQAIWKHPQPAPAVTPDPWGVQGGQESEVPYKREEEALEERRLSRGEIPTLQRS
notes: PKD2L1, human, full-length cDNA in pcDNA3.1(+), Flag inserted 5' of the coding region; also called Flag-PKD2L1; source: HeLa cells, transfected, in lysate; not shown: Flag, N-terminal, kept
- stoichiometry N [4]: 3 and 2

B5: Flag-tagged PKD2L1 ΔNT (deletion of M1-Y96) (domain or fragment, human, UniProt Q9P0L9-1 97-805, looked up)
chain: IKTTLRELLVYIVFLVDICLLTYGMTSSSAYYYTKVMSELFLHTPSDTGVSFQAISSMADFWDFAQGPLLDSLYWTKWYNNQSLGHGSHSFIYYENMLLGVPRLRQLKVRNDSCVVHEDFREDILSCYDVYSPDKEEQLPFGPFNGTAWTYHSQDELGGFSHWGRLTSYSGGGYYLDLPGSRQGSAEALRALQEGLWLDRGTRVVFIDFSVYNANINLFCVLRLVVEFPATGGAIPSWQIRTVKLIRYVSNWDFFIVGCEVIFCVFIFYYVVEEILELHIHRLRYLSSIWNILDLVVILLSIVAVGFHIFRTLEVNRLMGKLLQQPNTYADFEFLAFWQTQYNNMNAVNLFFAWIKIFKYISFNKTMTQLSSTLARCAKDILGFAVMFFIVFFAYAQLGYLLFGTQVENFSTFIKCIFTQFRIILGDFDYNAIDNANRILGPAYFVTYVFFVFFVLLNMFLAIINDTYSEVKEELAGQKDELQLSDLLKQGYNKTLLRLRLRKERVSDVQKVLQGGEQEIQFEDFTNTLRELGHAEHEITELTATFTKFDRDGNRILDEKEQEKMRQDLEEERVALNTEIEKLGRSIVSSPQGKSGPEAARAGGWVSGEEFYMLTRRVLQLETVLEGVVSQIDAVGSKLKMLERKGWLAPSPGVKEQAIWKHPQPAPAVTPDPWGVQGGQESEVPYKREEEALEERRLSRGEIPTLQRS
notes: PKD2L1, human, deletion of the N-terminus M1-Y96; also called Flag-ΔNT; Ctrl (ΔNT); source: HeLa or HEK cells, transfected, in lysate; not shown: Flag, N-terminal, kept
- stoichiometry N [4]: 3

B6: Flag-tagged PKD2L1 ΔNT/T622X (M1-Y96 and T622-S805 double deletion) (domain or fragment, human, UniProt Q9P0L9-1 97-621, looked up)
chain: IKTTLRELLVYIVFLVDICLLTYGMTSSSAYYYTKVMSELFLHTPSDTGVSFQAISSMADFWDFAQGPLLDSLYWTKWYNNQSLGHGSHSFIYYENMLLGVPRLRQLKVRNDSCVVHEDFREDILSCYDVYSPDKEEQLPFGPFNGTAWTYHSQDELGGFSHWGRLTSYSGGGYYLDLPGSRQGSAEALRALQEGLWLDRGTRVVFIDFSVYNANINLFCVLRLVVEFPATGGAIPSWQIRTVKLIRYVSNWDFFIVGCEVIFCVFIFYYVVEEILELHIHRLRYLSSIWNILDLVVILLSIVAVGFHIFRTLEVNRLMGKLLQQPNTYADFEFLAFWQTQYNNMNAVNLFFAWIKIFKYISFNKTMTQLSSTLARCAKDILGFAVMFFIVFFAYAQLGYLLFGTQVENFSTFIKCIFTQFRIILGDFDYNAIDNANRILGPAYFVTYVFFVFFVLLNMFLAIINDTYSEVKEELAGQKDELQLSDLLKQGYNKTLLRLRLRKERVSDVQKVLQGGEQEIQFEDF
notes: PKD2L1, human, M1-Y96 and T622-S805 deleted; source: HeLa cells, transfected, in lysate; not shown: Flag, N-terminal, kept
- stoichiometry N [3]: 3
